In patent US11136407:

What was measured:
[1] = target: CD9-3×FLAG-rabbitFc-Sortase-biotin (human; rabbit); test: SPR; * legend: dissociation too low for accurate fitting, a value of 0.1*10^-5 is used
[2] = target: CD9-3×FLAG-rabbitFc-Sortase-biotin (human; rabbit); test: SPR (IBIS MX96), antibody injected over CD9-3×FLAG-rabbitFc-Sortase-biotin chip, 1:1 model
[3] = target: CD9-3×FLAG-rabbitFc-Sortase-biotin (human; rabbit); test: ELISA, biotinylated CD9-EC2-Fc on streptavidin plate, goat anti-mouse HRP
[4] = target: CD9-3×FLAG-rabbitFc-Sortase-biotin (human; rabbit); test: SPR (IBIS MX96) on CD9 chip
[5] = target: CD9-3×FLAG-rabbitFc-Sortase-biotin (human; rabbit); test: SPR, 1:1 model
[6] = target: CD9-3×FLAG-rabbitFc-Sortase-biotin (human; rabbit); test: SPR; rests on the kd set to 0.1*10^-5; unit from the legend paragraph 216
[7] = target: CD9-3×FLAG-rabbitFc-Sortase-biotin (human; rabbit); test: SPR, 1:1 model; unit from the legend paragraph 216

Substance	koff [1]	Kd [2]	EC50 [3]	fold affinity against AT14-012 [4]	kon [5]	Kd [6]	Kd [7]	fold dissociation against HI9a [4]	koff [5]
mouse anti-CD9 antibody clone HI9a	< 1e-06 s⁻¹	0.00233 nM	0.02 µg/mL	19000 fold	430000 M⁻¹ s⁻¹	0.00233 nM	–	–	–
mouse anti-CD9 antibody clone ALB6	–	0.145 nM	0.013 µg/mL	–	151000 M⁻¹ s⁻¹	–	0.145 nM	22 fold	2.16e-05 s⁻¹
